Measured values published in patent US20230303674A1 (BETH ISRAEL DEACONESS MEDICAL CENTER, published 2023).
Ends that are not written are not given here.

Assays:
antibody G1 Fab fragment [1] = assay: Biacore competition: G1 Fab (50 nM) pre-incubated 1 h with 10 µM competing peptide, flowed over N-biotinylated human α-CGRP on SA chip
Source text: (§1) Y axis represents percentage of binding blocked by the presence of the competing peptide compared with the binding in the absence of the competing peptide.
(§2) All these peptides are amidated at the C-terminus.

antibody G1 Fab fragment [2] = assay: Biacore, 50 nM G1 Fab with 10 µM peptide, over human α-CGRP on chip
Source text: as §1, §2

antibody G1 Fab fragment [3] = assay: Biacore competition: G1 Fab (50 nM) pre-incubated with competing peptide, flowed over human α-CGRP on SA chip
Source text: as §1, §2

antibody G1 Fab fragment, sequence (VH, as listed by the source, chain 1 of 2): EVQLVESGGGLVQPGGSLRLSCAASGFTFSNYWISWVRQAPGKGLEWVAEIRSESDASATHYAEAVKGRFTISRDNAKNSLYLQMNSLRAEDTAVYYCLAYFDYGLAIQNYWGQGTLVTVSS
antibody G1 Fab fragment, sequence (VL, as listed by the source, chain 2 of 2): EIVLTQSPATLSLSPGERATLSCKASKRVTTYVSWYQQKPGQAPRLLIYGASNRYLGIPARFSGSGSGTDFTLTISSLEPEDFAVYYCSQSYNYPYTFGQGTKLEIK

Binder	% Binding Blocked (antibody G1 Fab fragment [1])	% of binding blocked (antibody G1 Fab fragment [2])	binding result (antibody G1 Fab fragment [3])
SGGVVKNNFVPTNVGSKAF-OH (free C-terminal carboxyl, not amidated; also called 19-37 (not amidated at the C-terminus)) [human α-CGRP 19-37-COOH]	83.3%	–	–
ACDTATCVTHRLAGLLSRSGGVVKNNFVPTNVGSKA-OH (ends and bridges not checked, free C-terminal carboxyl, not amidated; also called 1-36 (not amidated at the C-terminus)) [human α-CGRP 1-36-COOH]	40.6%	~40%	–

Results, then the binder that gave them:

% Binding Blocked (antibody G1 Fab fragment [1])	% of binding blocked (antibody G1 Fab fragment [2])	binding result (antibody G1 Fab fragment [3])	Binder
–	–	no binding (tested: 10 µM)	ACDTATCVTHRLA-OH (ends and bridges not checked, not amidated) [human α-CGRP 1-13-COOH]
–	–	no binding (tested: 10 µM)	ACDTATCVTHRLAGLLSRS-OH (ends and bridges not checked, not amidated) [human α-CGRP 1-19-COOH]
